Measured values as given in patent US20080292628A1.

Molecular target: human VEGF (human) (UniProt P15692)
Assay: cell-based or functional assay

Chain of UniProt P15692 (P15692 other isoform, or with tags, fused parts or gaps limits assumed): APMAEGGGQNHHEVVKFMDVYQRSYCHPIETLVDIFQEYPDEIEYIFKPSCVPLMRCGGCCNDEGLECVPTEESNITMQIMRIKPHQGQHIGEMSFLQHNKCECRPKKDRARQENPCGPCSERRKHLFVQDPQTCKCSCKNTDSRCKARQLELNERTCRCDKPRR

EC50, inhibition of VEGF (10 ng/ml) dependent HUVE cell proliferation: 0.015 µg/mL
Substance: VEGFR1-Fc-IL-1ra (Fc fusion)
